Laboratory results taken from patent US20210238298A1 (ALLIGATOR BIOSCIENCE, published 2021).

T1: Human OX40 (R&D systems, #3358_OX) (human, UniProt P43489 29-216)
T1 construct: Bought; Several catalogue numbers are given for it; also called human OX40 (R&D Systems, 3388-OX); OX40-Fc (R&D systems, #3358_OX); not shown: Fc part
T1 sequence: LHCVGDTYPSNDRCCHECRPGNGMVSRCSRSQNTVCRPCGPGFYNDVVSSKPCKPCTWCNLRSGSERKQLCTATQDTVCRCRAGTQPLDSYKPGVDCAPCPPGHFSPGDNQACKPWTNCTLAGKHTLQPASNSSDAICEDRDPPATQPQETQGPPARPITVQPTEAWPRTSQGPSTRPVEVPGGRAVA


Experiments:
[1] = target: T2, CTLA4-Fc (Fitzgerald, #30R-CD152) (human, UniProt P16410 38-152); experiment: SPR (Biacore), immobilised CTLA4-Fc
T2 construct: Bought; also called human CTLA-4 (Fitzgerald); biotinylated-CTLA4; not shown: Fc part of the bought fusion, not described
T2 sequence (P16410 38-152 limits assumed): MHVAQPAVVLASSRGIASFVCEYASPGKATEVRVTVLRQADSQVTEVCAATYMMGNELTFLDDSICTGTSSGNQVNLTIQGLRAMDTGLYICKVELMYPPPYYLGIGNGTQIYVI
Experimental: Either CTLA4-Fc (Fitzgerald, #30R-CD152) or CD28-Fc (R&D Systems, 342-CD) was immobilized to the Biacore™ sensor chip, CM5, using conventional amine coupling. The CD86 mutant molecules and controls (serially diluted ½ 100-1.5 nM) were analyzed for binding in HBS-P (GE, BR-1003-68) at a flow rate of […]. The association was followed for 3 minutes and the dissociation for 10 minutes. Regeneration was performed twice using 5 mM NaOH for 30 seconds. The kinetic parameters and the affinity constants were calculated using BIAevaluation 4.1 software (Table 1.3).

[2] = target: T2, CTLA4-Fc (Fitzgerald, #30R-CD152); experiment: inhibition ELISA; the best IC50 of Table 1.2 is that of 1040
Experimental: The sample (CD86 mutant or wild type protein; serially diluted ¼ from 30000 to 0.3 ng/ml) was incubated with biotinylated-CTLA4 (Fitzgerald, #30R-CD152) in room temperature 1 h, the mixture was then added to the blocked wells in the ELISA plate. Detection was performed with Streptavidin-HRP (Pierce, #21126) and the plates were subsequently developed using SuperSignal Pico Chemiluminescent substrate (Thermo Scientific, #37069) and detected with Envision reader (Perkin Elmer). […] Kd binding ratio=[Kd for CD28]÷[Kd for CTLA-4].

CD40 (Ancell) = target: T3, CD40 (Ancell) (UniProt P25942 21-193); experiment: ELISA, coated CD40-Fc
T3 construct: also called CD40-Fc (Ancell #504-820); not shown: Fc part, not described
T3 sequence (P25942 21-193 limits assumed): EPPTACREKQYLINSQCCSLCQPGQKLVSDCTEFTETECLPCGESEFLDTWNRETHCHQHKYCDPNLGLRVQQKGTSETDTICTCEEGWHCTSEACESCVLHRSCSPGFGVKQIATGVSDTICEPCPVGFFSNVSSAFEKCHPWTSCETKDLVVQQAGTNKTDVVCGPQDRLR
Experimental: (§1) ELISA plates (Greiner #655074) were coated with 50 μl/well of recombinant human OX40 (R&D #1493-CD), CD40-Fc (Ancell #504-820) or CD137 (R&D #838-4B) diluted to a final concentration of 0.5 μg/ml in PBS for 1 h at 37° C. or overnight at 4° C. Plates were washed with PBS+0.05% TWEEN20 (PBST), followed by block with PBST+1% bovine serum albumin (BSA). Antibody samples were prepared as serial 1/10 dilutions from 10-0.01 μg/ml in PBST+1% BSA and incubated for 1h in room temperature, followed by detection using a horse radish peroxidase-conjugated anti-human kappa light chain antibody (AbD Serotec #STAR127P) and developed using SuperSignal ELISA Pico Chemiluminescent substrate (Pierce ThermoScientific #37069).

[3] = target: CD137 on primary human CD8+ T cells (human, UniProt Q07011 24-255); experiment: cell-based or functional assay
Sequence of CD137 on primary human CD8+ T cells (Q07011 24-255 limits assumed): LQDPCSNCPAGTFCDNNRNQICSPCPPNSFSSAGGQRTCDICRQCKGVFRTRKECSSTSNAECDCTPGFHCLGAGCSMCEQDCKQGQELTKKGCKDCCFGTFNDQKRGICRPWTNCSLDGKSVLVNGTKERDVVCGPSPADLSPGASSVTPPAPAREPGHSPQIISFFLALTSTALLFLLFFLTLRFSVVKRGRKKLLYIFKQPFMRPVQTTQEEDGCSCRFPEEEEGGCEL

[4] = target: T4, CD137 chimera 1554 (1411): human CD137 with mouse domains 3B, 4A and 4B (aa 97-159), on FreeStyle 293-F cells (human; mouse, UniProt P20334 96-159); experiment: flow cytometry, 293-F transfectants
T4 construct: domain: 3B, 4A and 4B
T4 sequence (P20334 other isoform, or with tags, fused parts or gaps mutant limits assumed): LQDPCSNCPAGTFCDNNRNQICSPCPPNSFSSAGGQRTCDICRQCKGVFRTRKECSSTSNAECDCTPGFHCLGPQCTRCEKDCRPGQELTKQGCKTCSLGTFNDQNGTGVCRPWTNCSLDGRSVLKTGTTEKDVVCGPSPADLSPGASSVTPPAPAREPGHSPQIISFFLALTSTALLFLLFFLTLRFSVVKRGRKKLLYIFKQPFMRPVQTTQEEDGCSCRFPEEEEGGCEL

[5] = target: T5, CD137 chimera 1555 (1412): human CD137 with mouse domains 1 and 4B and region of unknown function (aa 24-46 … (human; mouse, UniProt P20334 24-45; P20334 139-185); experiment: flow cytometry, 293-F transfectants
T5 construct: domain: 1;domain: 4B and region of unknown function
T5 sequence (P20334 other isoform, or with tags, fused parts or gaps mutant limits assumed): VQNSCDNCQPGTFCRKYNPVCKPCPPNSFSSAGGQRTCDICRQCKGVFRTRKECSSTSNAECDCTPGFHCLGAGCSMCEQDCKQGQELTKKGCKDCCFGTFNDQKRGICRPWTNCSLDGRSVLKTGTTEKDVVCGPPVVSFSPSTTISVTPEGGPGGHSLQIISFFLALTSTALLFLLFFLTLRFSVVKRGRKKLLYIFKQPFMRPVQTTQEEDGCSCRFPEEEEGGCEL

[6] = target: T1, Human OX40 (R&D systems, #3358_OX); experiment: ELISA, coated recombinant human OX40
Experimental: as §1

CTLA-4 (BMS, Orencia) [7] = target: T6, CTLA-4 (BMS, Orencia) (human, UniProt P16410 38-152); experiment: cell-based or functional assay
T6 sequence (P16410 38-152 limits assumed): as the sequence (P16410 38-152 limits assumed) above

CTLA-4 (BMS, Orencia) [8] = target: T6, CTLA-4 (BMS, Orencia); experiment: cell-based or functional assay; remark: listed apart in the source
[9] = target: T1, Human OX40 (R&D systems, #3358_OX); experiment: dual ELISA: OX40-Fc coated, bispecific antibody in dilutions, biotinylated CD137-Fc (1 ug/ml), HRP-streptavidin; the signal needs both bindings at once

Binder	binding result (CD40 (Ancell))	Max IFN-γ [3]	Mean IFN-γ [3]	Min IFN-γ [3]	binding result [6]	Mean IL-2 level (pg/ml) induced at 1.5 nM (CTLA-4 (BMS, Orencia) [8])	also measured
CD86 mutant 1040 (ligand, Variant of the CD86 extracellular domain) APLKIQAYFNETADLPCQFANSQNLSLSELVVFWQDQENLVLNEVYLGKERFDSVDSKYMGRTSFDSDSWTLRLHNLQIKDKGRYQCIIHHKKPTGMINIHQMNSELSVLA							Kd [1]: 3 nM; koff [1]: 0.0032 s⁻¹; kon [1]: 1e+06 M⁻¹ s⁻¹; fold improvement of IC50 compared to wild type [2]: > 100 fold
anti-CD137 antibody 1204/1205 (antibody, IgG1, V domains shown, Produced as IgG; also called 1204-bio) VH: EVQLLESGGGLVQPGGSLRLSCAASGFTFSSYYMGWVRQAPGKGLEWVSGIGSYYGYTGYADSVKGRFTISRDNSKNTLYLQMNSLRAEDTAVYYCARAYYDYNYYYAYFDYWGQGTLVTVSS VL: DIQMTQSPSSLSASVGDRVTITCRASQSISSYLNWYQQKPGKAPKLLIYAASSLQSGVPSRFSGSGSGTDFTLTISSLQPEDFATYYCQQSVPHYPFTFGQGTKLEIK	no binding (tested: 10 µg/ml)	153000 pg/mL	64400 pg/mL	13100 pg/mL	no binding (tested: 10 µg/ml)		relative binding (MFI sample/isotype control, normalised to full-length human CD137) [4]: 0.73; relative binding (MFI sample/isotype control, normalised to full-length human CD137) [5]: 0.28
anti-CD137 antibody 1626/1627 (antibody, IgG1, V domains shown, Produced as IgG; also called 1626-bio) VH: EVQLLESGGGLVQPGGSLRLSCAASGFTFGGYSMYWVRQAPGKGLEWVSSIGGYYYSTYYADSVKGRFTISRDNSKNTLYLQMNSLRAEDTAVYYCARSYYGSIDYWGQGTLVTVSS VL: DIQMTQSPSSLSASVGDRVTITCRASQSISSYLNWYQQKPGKAPKLLIYAASSLQSGVPSRFSGSGSGTDFTLTISSLQPEDFATYYCQQGTGYGPLTFGQGTKLEIK	no binding (tested: 10 µg/ml)	32200 pg/mL	15100 pg/mL	4160 pg/mL	no binding (tested: 10 µg/ml)		
bispecific molecule 1170/1263 (OX40 x CTLA-4) (bispecific antibody, human IgG1, kappa) heavy: not shown light: DIQMTQSPSSLSASVGDRVTITCRASQSISSYLNWYQQKPGKAPKLLIYAASSLQSGVPSRFSGSGSGTDFTLTISSLQPEDFATYYCQQGHGSYPHTFGQGTKLEIKRTVAAPSVFIFPPSDEQLKSGTASVVCLLNNFYPREAKVQWKVDNALQSGNSQESVTEQDSKDSTYSLSSTLTLSKADYEKHKVYACEVTHQGLSSPVTKSFNRGECSGGGGSGGGGSAPLKIQAYFNETADLPCQFANSQNLSLSELVVFWQDQENLVLNEVYLGKERFDSVDSKYMGRTSFDSDSWTLRLHNLQIKDKGRYQCIIHHKKPTGMINIHQMNSELSVLA						2580 pg/mL	Fold change in IL-2 level induced by bispecific molecule compared to the corresponding combination of the monospecific molecules at 1.5 nM (CTLA-4 (BMS, Orencia) [7]): 4.7 fold
bispecific molecule 1526/1585 (OX40 x CTLA-4) (bispecific antibody, human IgG1, kappa) heavy: not shown light: DIQMTQSPSSLSASVGDRVTITCRASQSISSYLNWYQQKPGKAPKLLIYAASSLQSGVPSRFSGSGSGTDFTLTISSLQPEDFATYYCQQYGSDSLLTFGQGTKLEIKRTVAAPSVFIFPPSDEQLKSGTASVVCLLNNFYPREAKVQWKVDNALQSGNSQESVTEQDSKDSTYSLSSTLTLSKADYEKHKVYACEVTHQGLSSPVTKSFNRGECSGGGGSGGGGSAPLKIQAYFNETADLPCQFANSQNLSLSELVVFWQDQENLVLNEVYLGKERFDSVDSKYMGRTSFDSDSWTLRLHNLQIKDKGRYQCIIHHKKPTGMINIHQMNSELSVLA						3200 pg/mL	
1526/1527-1204/1205 (bispecific antibody, human IgG1, kappa, OX40 x CD137 bispecific antibody, scFv-IgG format) heavy chain fused to scFv (VH1-Hc-linker-VH2/VL2): not shown light chain (VL1-Lc): DIQMTQSPSSLSASVGDRVTITCRASQSISSYLNWYQQKPGKAPKLLIYAASSLQSGVPSRFSGSGSGTDFTLTISSLQPEDFATYYCQQYGSDSLLTFGQGTKLEIKRTVAAPSVFIFPPSDEQLKSGTASVVCLLNNFYPREAKVQWKVDNALQSGNSQESVTEQDSKDSTYSLSSTLTLSKADYEKHKVYACEVTHQGLSSPVTKSFNRGEC							binding result [9]: binds
